Experimental findings from patent publication US20240343771A1 are described below.

Assay [1] deals with IL-12 receptor (human IL-12Rb1 and IL-12Rb2 on IL-12 bioassay cells) (human) (UniProt P42701).
For assay [2] the target is unchanged. The source holds these as a separate data set.
For assay [3] the target is unchanged. The source holds these as a separate data set.
For assay [4] the target is unchanged. This is another data set of the same source.

Chain of IL-12 receptor (human IL-12Rb1 and IL-12Rb2 on IL-12 bioassay cells) (human) (Q99665 24-862, chain 2 of 2, other chains not shown): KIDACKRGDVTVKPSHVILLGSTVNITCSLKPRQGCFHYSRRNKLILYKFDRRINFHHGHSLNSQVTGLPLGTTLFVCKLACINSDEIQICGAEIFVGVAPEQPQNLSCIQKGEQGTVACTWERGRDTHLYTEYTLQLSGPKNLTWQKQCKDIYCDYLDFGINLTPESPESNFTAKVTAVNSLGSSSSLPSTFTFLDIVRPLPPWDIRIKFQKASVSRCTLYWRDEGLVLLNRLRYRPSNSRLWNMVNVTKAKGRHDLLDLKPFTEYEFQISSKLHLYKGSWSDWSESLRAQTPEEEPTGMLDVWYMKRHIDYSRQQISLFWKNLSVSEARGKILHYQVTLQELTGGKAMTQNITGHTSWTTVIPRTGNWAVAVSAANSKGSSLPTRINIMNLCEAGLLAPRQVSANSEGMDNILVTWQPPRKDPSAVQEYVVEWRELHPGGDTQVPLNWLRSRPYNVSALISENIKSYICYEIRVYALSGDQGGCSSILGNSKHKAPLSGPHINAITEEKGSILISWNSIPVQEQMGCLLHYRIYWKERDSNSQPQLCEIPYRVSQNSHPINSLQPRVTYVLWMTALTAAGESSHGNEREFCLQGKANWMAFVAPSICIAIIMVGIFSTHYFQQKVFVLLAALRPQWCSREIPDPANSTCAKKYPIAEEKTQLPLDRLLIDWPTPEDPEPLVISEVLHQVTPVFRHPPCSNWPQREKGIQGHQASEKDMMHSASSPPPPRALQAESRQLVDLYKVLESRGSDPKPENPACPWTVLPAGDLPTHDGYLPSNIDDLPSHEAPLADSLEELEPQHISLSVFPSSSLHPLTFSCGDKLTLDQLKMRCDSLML
Chain of hIL12 + MTSP1 (P29459 23-219): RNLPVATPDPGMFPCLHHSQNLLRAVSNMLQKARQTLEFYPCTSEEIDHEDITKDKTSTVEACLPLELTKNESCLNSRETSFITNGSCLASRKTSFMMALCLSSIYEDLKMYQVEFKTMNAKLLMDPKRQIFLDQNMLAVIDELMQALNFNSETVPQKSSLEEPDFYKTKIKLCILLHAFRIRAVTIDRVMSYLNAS
Chain of hIL12 + MTSP1 (P29460 23-328): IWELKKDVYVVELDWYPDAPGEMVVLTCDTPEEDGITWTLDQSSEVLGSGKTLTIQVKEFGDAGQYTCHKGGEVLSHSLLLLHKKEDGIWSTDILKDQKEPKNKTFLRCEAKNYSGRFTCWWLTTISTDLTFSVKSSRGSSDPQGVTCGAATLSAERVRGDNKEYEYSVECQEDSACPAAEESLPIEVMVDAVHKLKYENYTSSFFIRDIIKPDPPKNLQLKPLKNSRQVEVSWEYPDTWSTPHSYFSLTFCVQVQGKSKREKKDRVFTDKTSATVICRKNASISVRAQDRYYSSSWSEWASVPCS

Regarding “hIL12 + MTSP1 (from UniProt P29459;P29460) (ligand)”, the EC50 (read off the curve) (luciferase activity, AU; the assay is not described for this figure) in assay [1] amounted to 0.3 nM.

Consider hIL12_His tag (ligand), for which the EC50 (read off the curve) (luciferase reporter in IL-12 bioassay cells expressing human IL-12Rb1, IL-12Rb2 and STAT4) [left graph] in assay [2] came to 0.1 nM. Further, the EC50 (read off the curve) (luciferase reporter in IL-12 bioassay cells expressing human IL-12Rb1, IL-12Rb2 and STAT4) [all three graphs] in assay [3] amounted to 0.2 nM. The substance further returned an EC50 (read off the curve) (luciferase reporter in IL-12 bioassay cells expressing human IL-12Rb1, IL-12Rb2 and STAT4) in assay [4] of 0.2 nM.

hIL12_His tag + MTSP1 (ligand) returned an EC50 (read off the curve) (luciferase reporter in IL-12 bioassay cells expressing human IL-12Rb1, IL-12Rb2 and STAT4) [all three graphs] in assay [3] of 0.2 nM. Moreover, in assay [4], the EC50 (read off the curve) (luciferase reporter in IL-12 bioassay cells expressing human IL-12Rb1, IL-12Rb2 and STAT4) was 0.2 nM.
